Reference: US20220118089A1 (UNIVERSITY OF CHICAGO, published 2022)
One block for each molecule: values may come before it.

How the values were obtained:
[1] = molecular target: human type III collagen (Millipore Sigma) (human) (UniProt P02461); assay: ELISA on plates coated with collagen III, 0-740 nM A3-IL4
[2] = molecular target: recombinant mouse IL-4Ra protein (R&D Systems) (mouse) (UniProt P16382); assay: ELISA on plates coated with recombinant mouse IL-4Ra (10 µg/mL), 0-740 nM A3-IL4, detected with an antibody against mouse IL-4, A450; Kd from the fitted curve [B]
Sequence of recombinant mouse IL-4Ra protein (R&D Systems) (mouse) (P16382 26-233 limits assumed): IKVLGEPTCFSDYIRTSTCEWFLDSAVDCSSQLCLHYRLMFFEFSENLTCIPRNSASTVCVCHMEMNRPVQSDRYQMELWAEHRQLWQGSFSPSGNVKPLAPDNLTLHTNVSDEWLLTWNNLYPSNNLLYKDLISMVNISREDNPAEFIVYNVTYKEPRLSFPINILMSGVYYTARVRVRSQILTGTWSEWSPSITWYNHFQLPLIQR

[3] = molecular target: T1, human type III collagen (Millipore Sigma) (human, UniProt P02461 154-1221); assay: SPR (Biacore X100), human type III collagen immobilised by amine coupling, CBD-SA-IL-10 flowed, 1:1 Langmuir fit
T1 construct: treated as one molecule; also called collagen type III; collagen III
T1 sequence (looked up): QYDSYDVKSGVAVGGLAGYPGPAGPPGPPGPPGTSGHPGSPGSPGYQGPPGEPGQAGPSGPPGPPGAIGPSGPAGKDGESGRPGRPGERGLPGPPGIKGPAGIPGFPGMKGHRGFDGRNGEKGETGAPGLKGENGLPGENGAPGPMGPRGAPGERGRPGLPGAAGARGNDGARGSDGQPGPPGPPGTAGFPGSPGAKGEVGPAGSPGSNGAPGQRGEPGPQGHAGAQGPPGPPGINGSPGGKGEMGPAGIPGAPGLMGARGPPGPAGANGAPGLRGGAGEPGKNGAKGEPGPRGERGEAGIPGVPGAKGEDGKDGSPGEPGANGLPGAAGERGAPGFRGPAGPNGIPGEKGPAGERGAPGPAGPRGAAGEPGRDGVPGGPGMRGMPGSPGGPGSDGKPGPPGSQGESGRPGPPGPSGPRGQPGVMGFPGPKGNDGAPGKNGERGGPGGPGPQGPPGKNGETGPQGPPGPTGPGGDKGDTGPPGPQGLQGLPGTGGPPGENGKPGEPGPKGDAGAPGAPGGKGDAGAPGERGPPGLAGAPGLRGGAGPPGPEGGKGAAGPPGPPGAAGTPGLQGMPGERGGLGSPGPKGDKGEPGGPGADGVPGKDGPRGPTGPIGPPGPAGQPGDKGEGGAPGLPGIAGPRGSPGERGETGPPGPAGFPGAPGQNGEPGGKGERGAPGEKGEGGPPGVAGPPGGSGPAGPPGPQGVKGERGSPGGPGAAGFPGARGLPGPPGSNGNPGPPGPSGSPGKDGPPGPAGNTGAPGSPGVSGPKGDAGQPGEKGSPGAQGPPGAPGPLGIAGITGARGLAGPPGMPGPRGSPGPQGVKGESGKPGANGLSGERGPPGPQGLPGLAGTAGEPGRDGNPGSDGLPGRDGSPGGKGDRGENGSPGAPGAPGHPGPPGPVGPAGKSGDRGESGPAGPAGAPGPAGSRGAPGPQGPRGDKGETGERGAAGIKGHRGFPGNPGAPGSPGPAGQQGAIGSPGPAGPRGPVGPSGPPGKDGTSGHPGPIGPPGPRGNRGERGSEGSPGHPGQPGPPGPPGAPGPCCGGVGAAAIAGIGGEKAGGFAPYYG
Description: (§1) SPR measurements were carried out with Biacore X100 instrument. In collagen binding experiments, recombinant human type I or type III collagen (Millipore Sigma) were immobilized on a CMS sensor chip by standard amine coupling method (˜1500 resonance units (RUs)) and blocked with ethanolamine. […] In FcRn binding experiments, recombinant mouse FcRn (Acro Biosystems) was immobilized via amine coupling on a C1 chip (GE Healthcare) for ˜200 RU according to the manufacturer's instructions. […] The sensor chip was regenerated with PBS, pH 7.4 for every cycle.

[4] = molecular target: T2, recombinant mouse FcRn (Acro Biosystems) (mouse, UniProt Q61559 22-297; P01887 21-119); assay: SPR (Biacore X100), mouse FcRn immobilised on a C1 chip, CBD-SA-IL-10 flowed at pH 5.8, 1:1 Langmuir fit
T2 construct: also called neonatal Fc receptor; murine FcRn recombinant protein
T2 sequence (looked up) 1: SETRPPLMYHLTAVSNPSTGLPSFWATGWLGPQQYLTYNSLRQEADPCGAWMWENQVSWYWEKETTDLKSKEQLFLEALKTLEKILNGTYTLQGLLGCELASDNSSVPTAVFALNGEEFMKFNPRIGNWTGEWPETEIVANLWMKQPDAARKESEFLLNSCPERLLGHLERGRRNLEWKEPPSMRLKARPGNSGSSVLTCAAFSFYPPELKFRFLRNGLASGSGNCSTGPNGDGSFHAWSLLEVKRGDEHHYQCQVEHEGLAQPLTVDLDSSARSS
T2 sequence (looked up) 2: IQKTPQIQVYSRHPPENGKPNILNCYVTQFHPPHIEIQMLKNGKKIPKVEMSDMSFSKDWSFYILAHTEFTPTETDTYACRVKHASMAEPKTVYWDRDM
Description: as §1

[5] = molecular target: T3, human type I collagen (Millipore Sigma) (human, UniProt P02452 162-1218; P08123 80-1119); assay: SPR (Biacore X100), human type I collagen immobilised by amine coupling, CBD-SA-IL-10 flowed, 1:1 Langmuir fit
T3 construct: treated as one molecule; also called collagen type I
T3 sequence (P02452 162-1218, chain 1 of 2): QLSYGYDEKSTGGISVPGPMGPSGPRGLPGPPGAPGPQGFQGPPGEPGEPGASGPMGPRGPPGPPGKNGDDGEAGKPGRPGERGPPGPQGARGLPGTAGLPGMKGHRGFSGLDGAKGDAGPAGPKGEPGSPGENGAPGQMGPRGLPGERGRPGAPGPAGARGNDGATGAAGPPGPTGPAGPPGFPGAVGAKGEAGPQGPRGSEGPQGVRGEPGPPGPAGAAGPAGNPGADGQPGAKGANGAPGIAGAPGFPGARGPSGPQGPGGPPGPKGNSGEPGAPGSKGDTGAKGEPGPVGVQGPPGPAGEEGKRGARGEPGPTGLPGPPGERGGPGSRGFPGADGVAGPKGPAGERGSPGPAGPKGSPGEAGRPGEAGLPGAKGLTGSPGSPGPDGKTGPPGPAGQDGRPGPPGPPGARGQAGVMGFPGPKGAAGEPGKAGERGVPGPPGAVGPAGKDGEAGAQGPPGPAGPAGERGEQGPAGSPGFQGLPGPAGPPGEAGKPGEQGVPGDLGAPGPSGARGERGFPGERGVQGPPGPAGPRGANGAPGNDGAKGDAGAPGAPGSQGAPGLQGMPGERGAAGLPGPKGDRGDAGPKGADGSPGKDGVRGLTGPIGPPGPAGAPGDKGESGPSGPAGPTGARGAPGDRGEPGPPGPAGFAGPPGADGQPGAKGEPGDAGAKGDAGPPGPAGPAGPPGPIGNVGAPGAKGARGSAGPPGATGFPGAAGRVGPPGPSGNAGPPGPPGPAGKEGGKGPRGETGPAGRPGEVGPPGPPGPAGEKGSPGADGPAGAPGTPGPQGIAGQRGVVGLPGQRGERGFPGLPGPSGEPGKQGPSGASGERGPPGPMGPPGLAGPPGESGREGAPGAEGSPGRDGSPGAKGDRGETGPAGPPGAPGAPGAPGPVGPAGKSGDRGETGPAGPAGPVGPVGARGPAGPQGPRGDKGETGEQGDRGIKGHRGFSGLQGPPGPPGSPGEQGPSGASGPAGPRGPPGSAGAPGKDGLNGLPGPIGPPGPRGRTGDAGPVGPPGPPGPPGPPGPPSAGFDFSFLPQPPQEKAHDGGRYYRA
T3 sequence (P08123 80-1119, chain 2 of 2): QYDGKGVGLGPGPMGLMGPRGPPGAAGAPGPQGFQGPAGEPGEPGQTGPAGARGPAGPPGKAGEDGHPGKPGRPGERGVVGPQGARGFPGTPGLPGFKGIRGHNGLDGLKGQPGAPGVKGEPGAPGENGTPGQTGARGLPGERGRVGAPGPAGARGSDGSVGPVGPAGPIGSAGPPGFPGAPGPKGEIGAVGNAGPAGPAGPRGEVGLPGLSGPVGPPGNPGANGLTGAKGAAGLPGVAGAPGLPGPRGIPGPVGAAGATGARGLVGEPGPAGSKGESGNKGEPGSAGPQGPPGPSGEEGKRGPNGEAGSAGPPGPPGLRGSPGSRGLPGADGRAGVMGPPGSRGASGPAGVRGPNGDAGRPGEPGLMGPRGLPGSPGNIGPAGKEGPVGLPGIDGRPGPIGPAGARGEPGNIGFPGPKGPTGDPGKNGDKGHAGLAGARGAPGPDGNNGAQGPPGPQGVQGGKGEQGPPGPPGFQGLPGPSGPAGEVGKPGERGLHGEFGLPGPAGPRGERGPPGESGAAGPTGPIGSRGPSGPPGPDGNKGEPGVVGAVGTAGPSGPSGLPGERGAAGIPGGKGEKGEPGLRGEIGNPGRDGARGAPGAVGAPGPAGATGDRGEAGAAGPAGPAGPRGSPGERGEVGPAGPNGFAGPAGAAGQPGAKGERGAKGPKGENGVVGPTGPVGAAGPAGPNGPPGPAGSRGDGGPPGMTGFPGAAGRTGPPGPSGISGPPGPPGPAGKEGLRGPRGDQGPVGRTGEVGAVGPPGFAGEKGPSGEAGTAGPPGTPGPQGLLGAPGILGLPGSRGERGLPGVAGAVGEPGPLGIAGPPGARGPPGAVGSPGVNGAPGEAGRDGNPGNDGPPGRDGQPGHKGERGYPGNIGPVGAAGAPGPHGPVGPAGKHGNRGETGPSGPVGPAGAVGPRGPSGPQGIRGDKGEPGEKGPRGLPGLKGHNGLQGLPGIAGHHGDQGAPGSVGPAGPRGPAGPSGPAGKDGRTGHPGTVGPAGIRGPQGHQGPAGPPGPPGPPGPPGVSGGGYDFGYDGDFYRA
Description: as §1

Kd [1]: 28.6 nM
Kd [2]: 100 nM
Molecule: vWF A3 domain-fused IL-4 (human vWF A3 domain and mouse IL-4 fusion protein)

Kd [3]: 8 nM
koff [3]: 0.0026 s⁻¹
Kd [4]: 1600 nM
koff [4]: 0.0084 s⁻¹
kon [4]: 5210 M⁻¹ s⁻¹
Kd [5]: 12.4 nM
koff [5]: 0.0034 s⁻¹
B1: Human VWF A3 domain (CBD), mouse serum albumin and mouse IL-10 fusion protein (other)
chain: CSQPLDVVLLLDGSSSLPESSFDKMKSFAKAFISKANIGPHLTQVSVIQYGSINTIDVPWNVVQEKAHLQSLVDLMQQEGGPSQIGDALAFAVRYVTSQIHGARPGASKAVVIIIMDTSLDPVDTAADAARSNRVAVFPVGVGDRYDEAQLRILAGPGASSNVVKLQQVEDLSTMATLGNSFFHKLCSGFSGVGGGSGGGSEAHKSEIAHRYNDLGEQHFKGLVLIAFSQYLQKCSYDEHAKLVQEVTDFAKTCVADESAANCDKSLHTLFGDKLCAIPNLRENYGELADCCTKQEPERNECFLQHKDDNPSLPPFERPEAEAMCTSFKENPTTFMGHYLHEVARRHPYFYAPELLYYAEQYNEILTQCCAEADKESCLTPKLDGVKEKALVSSVRQRMKCSSMQKFGERAFKAWAVARLSQTFPNADFAEITKLATDLTKVNKECCHGDLLECADDRAELAKYMCENQATISSKLQTCCDKPLLKKAHCLSEVEHDTMPADLPAIAADFVEDQEVCKNYAEAKDVFLGTFLYEYSRRHPDYSVSLLLRLAKKYEATLEKCCAEANPPACYGTVLAEFQPLVEEPKNLVKTNCDLYEKLGEYGFQNAILVRYTQKAPQVSTPTLVEAARNLGRVGTKCCTLPEDQRLPCVEDYLSAILNRVCLLHEKTPVSEHVTKCCSGSLVERRPCFSALTVDETYVPKEFKAETFTFHSDICTLPEKEKQIKKQTALAELVKHKPKATAEQLKTVMDDFAQFLDTCCKAADKDTCFSTEGPNLVTRCKDALAGGGSGGGSSRGQYSREDNNCTHFPVGQSHMLLELRTAFSQVKTFFQTKDQLDNILLTDSLMQDFKGYLGCQALSEMIQFYLVEVMPQAEKHGPEIKEHLNSLGEKLKTLRMRLRRCHRFLPCENKSKAVEQVKSDFNKLQDQGVYKAMNEFDIFINCIEAYMMIKMKSHHHHHH
notes: also called CBD-SA-IL-10; CBD-SA-fused IL-10
